Measured values reported in US20260092920A1 (FIBROINOVA BIOMEDICAL TECHNOLOGY GUANGZHOU, published 2026).

Target: T1, His-tagged extracellular domain of antigen DDR2 (human, UniProt Q16832 22-399)
T1 construct: range 22-399; Captured on Ni-NTA sensors in BLI; also called extracellular domain protein of the DDR2 antigen; DDR2 antigen; not shown: His tag
T1 sequence (looked up): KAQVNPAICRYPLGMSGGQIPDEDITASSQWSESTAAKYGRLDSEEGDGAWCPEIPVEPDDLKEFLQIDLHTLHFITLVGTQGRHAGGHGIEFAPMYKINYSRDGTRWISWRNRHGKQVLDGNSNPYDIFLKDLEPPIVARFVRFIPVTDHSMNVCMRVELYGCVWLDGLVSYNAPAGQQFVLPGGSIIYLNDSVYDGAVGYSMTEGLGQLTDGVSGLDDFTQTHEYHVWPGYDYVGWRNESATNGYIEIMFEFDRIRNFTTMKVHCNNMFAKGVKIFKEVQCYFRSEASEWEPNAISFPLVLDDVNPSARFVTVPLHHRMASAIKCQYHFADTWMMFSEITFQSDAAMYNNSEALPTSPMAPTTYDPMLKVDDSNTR
Assay: BLI (ForteBio), His-tagged DDR2 extracellular domain captured on Ni-NTA sensor, nanobody 100 nM to 3.125 nM in solution, 1:1 fit
Description: For the DDR2 nanobody 1A12 described above, based on the ForteBio bio-layer interferometry (BLI) platform for molecular interaction analysis, the affinity of the nanobody for the extracellular domain protein of the DDR2 antigen was analyzed and detected by determining the affinity of the antibody for the antigen by using the BLI method.
The kinetic curves were made, and the relevant parameters were calculated. Appropriate binding and dissociation curves of several concentration gradients were selected. All the curves were fitted using the 1:1 binding model. Three curves with the best fitting degrees were selected for plotting and analysis. Finally, important parameters such as affinity value, binding constant, and dissociation constant were obtained.

B1: DDR2 nanobody 1A12 (VHH)
VHH: EVQLVESGGGLVQPGGSLRLSCAASGYILSPNVMGWFRQAPGKGRELVAAISWGDGRTYYPDSVEGRFTISRDNAKRMVYLQMNSLRAEDTAVYYCAASRKGYPSTRSDPYNYWGQGTQVTVSS
notes: VHH of an alpaca heavy chain antibody raised against the human DDR2 extracellular domain; Expressed and purified; also called Nb-DDR2; 1A12-VHH
  Kd: 4.36 nM
